Assay results published in patent publication US20130224224A1 (Boehringer Ingelheim, published 2013).
Residue numbers refer to the chain shown, from its start. Names and notes keep the numbering of the source. Where two headings read alike, the source gives them in different places.

T1: human CX3CR1 (human, UniProt P49238 1-355)
T1 sequence: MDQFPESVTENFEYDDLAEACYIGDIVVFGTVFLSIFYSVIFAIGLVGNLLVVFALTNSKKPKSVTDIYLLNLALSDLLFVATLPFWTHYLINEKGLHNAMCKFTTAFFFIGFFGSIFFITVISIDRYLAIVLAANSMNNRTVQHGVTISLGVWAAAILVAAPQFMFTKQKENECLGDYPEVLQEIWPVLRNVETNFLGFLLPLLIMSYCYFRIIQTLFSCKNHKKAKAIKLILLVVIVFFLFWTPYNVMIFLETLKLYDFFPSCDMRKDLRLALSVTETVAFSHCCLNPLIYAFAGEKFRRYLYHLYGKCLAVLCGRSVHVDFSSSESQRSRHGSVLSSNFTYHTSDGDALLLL

B1: 66B02-mFc (Fc fusion)
chain: EVQLVESGGGSVQAGESLRLSCAASGSIFSSNAMAWYRQAPGKRRDLVAAINSVGVTKYADSVKGRFTISRDNAKNTVYLQMNSLKPEDTAVYYCTSDPRRGWDTRYWGQGTLVTVSSGGGGSGGGGSGGGGSPPCKCPAPNLLGGPSVFIFPPKIKDVLMISLSPIVTCVVVAVSEDDPDVQISWFVNNVEVHTAQTQTHREDYNSTLRVVSALPIQHQDWMSGKEFKCKVNNKDLPAPIERTISKPKGSVRAPQVYVLPPPEEEMTKKQVTLTCMVTDFMPEDIYVEWTNNGKTELNYKNTEPVLDSDGSYFMYSKLRVEKKNWVERNSYSCSVVHEGLHNHHTTKSFSRTPGK
notes: 66B02 VHH fused to a mouse IgG2 Fc domain with D265A in CH2; expressed in HEK293T or NS0 cells; dimer form is told only as an aspect
B2: CX3CR1BII026 (VHH)
chain: EVQLVESGGGLVQAGGSLRLSCVASGRTFSSYAMGWFRQAPGKERAFVAGISGSASRKYYADSVKGRFTVSRDNARNTVYLQMNSLKPEDTAVYYCAASNSYPKVQFDYYGQGTQVTVSSGGGGSGGGGSGGGGSGGGGSGGGGSGGGGSGGGGSEVQLVESGGGSVQAGESLRLSCAASGSIFSSNAMAWYRQAPGKRRDLVAAINSVGVTKYADSVKGRFTISRDNAKNTVYLQMNSLKPEDTAVYYCTSDPRRGWDTRYWGQGTQVTVSS
notes: expressed in E. coli as described for the monovalent VHHs
B3: CX3CR1BII027 (VHH)
chain: B2 chain with R199Q, A205G, V211I, V233A, Q268L
notes: as for B2
B4: 306D-hFc (Fc fusion)
chain: DVQLVESGGGLVQPGGSLRLSCAASGSIFSSTAMAWYRQAPGKRRDLVAAISSVGVTKYADSVKGRFTISRDNSKNTVYLQMNSLRPEDTAVYYCTSDPRRGWDTRYWGQGTLVTVSSGGGGSGGGGSGGGGSCPPCPAPEAAGGPSVFLFPPKPKDTLMISRTPEVTCVVVDVSHEDPEVKFNWYVDGVEVHNAKTKPREEQYNSTYRVVSVLTVLHQDWLNGKEYKCKVSNKALPAPIEKTISKAKGQPREPQVYTLPPSREEMTKNQVSLTCLVKGFYPSDIAVEWESNGQPENNYKTTPPVLDSDGSFFLYSKLTVDKSRWQQGNVFSCSVMHEALHNHYTQKSLSLSPGK
notes: CX3CR1BII00306 fused to a human IgG1 Fc domain with two mutations in CH2; expressed in HEK293T or NS0 cells
B5: 307D-hFc (Fc fusion)
chain: B4 chain with S53T
notes: CX3CR1BII00307 fused to a human IgG1 Fc domain with two mutations in CH2; expressed in HEK293T or NS0 cells

Columns and labels:
human CX3CR1 [1] = target: T1, human CX3CR1; assay: cell-based or functional assay
human CX3CR1 [2] = target: T1, human CX3CR1; assay: A647-fractalkine competition FACS, BA/F3-huCX3CR1
human CX3CR1 [3] = target: T1, human CX3CR1; assay: cell-based or functional assay; remark: listed apart in the source
human CX3CR1 [4] = target: T1, human CX3CR1; assay: A647-fractalkine competition FACS, BA/F3-huCX3CR1; remark: listed apart in the source
human CX3CR1 [5] = target: T1, human CX3CR1; assay: cell-based or functional assay; remark: listed apart in the source
human CX3CR1 [6] = target: T1, human CX3CR1; assay: A647-fractalkine competition FACS, BA/F3-huCX3CR1; remark: listed apart in the source

Binder	% block, fractalkine induced chemotaxis (human CX3CR1 [3])	IC50, fractalkine induced chemotaxis (human CX3CR1 [3])	IC50 (human CX3CR1 [4])	IC50, Calcium influx (human CX3CR1 [5])	IC50, Chemotaxis (human CX3CR1 [5])	IC50, Ligand internalization (human CX3CR1 [5])	IC50 (human CX3CR1 [6])	further results
B1	–	–	–	–	–	–	–	IC50, Calcium influx (human CX3CR1 [1]): 0.98 nM; IC50, Chemotaxis (human CX3CR1 [1]): 0.89 nM; IC50, Ligand internalization (human CX3CR1 [1]): 0.52 nM; IC50 (human CX3CR1 [2]): 0.57 nM
B2	98%	0.3 nM	0.7 nM	–	–	–	–	–
B3	98%	0.9 nM	0.67 nM	–	–	–	–	–
B4	–	–	–	1.3 nM	2.9 nM	0.48 nM	0.69 nM	–
B5	–	–	–	3.2 nM	3 nM	0.37 nM	0.7 nM	–
